From patent publication US20160145343A1

Columns and labels:
[1] = target: Normal MUC1 on non-transformed MCF-10A cells and on normal tissue (human) (UniProt P15941); assay: flow cytometry, MCF10a cells
BSA = BSA (UniProt P02769); assay: ELISA on coated BSA, antibody 0.01 mg/ml, mean of 3
[2] = target: SEQ ID NO: 346 glycopeptide with Tn-antigen at Thr4, Thr9 and Thr16; assay: ELISA on coated glycopeptide, antibody 0.01 mg/ml, mean of 3
[3] = target: SEQ ID NO: 346 glycopeptide with TF-antigen at Thr16; assay: as above

Chain of BSA (P02769 25-607 limits assumed): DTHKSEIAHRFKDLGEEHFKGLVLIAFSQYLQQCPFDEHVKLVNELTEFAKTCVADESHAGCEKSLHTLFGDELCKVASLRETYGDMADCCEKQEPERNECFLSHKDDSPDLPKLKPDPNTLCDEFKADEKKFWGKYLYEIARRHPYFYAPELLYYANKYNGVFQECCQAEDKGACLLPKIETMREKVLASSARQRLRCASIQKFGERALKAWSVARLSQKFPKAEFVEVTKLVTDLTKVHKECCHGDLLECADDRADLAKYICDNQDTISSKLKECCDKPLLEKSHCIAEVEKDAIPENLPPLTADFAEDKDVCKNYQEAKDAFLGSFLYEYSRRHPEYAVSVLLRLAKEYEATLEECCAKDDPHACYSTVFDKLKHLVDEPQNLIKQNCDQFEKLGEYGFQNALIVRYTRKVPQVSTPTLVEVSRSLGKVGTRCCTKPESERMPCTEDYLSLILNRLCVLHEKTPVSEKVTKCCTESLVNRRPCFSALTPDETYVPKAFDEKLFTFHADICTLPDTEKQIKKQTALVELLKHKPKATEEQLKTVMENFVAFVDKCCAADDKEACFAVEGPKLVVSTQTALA

Binder | percentage of APC+ stained cells [1] [%] | ELISA absorbance at 450 nm (BSA) [absorbance] | ELISA absorbance at 450 nm [2] [absorbance] | ELISA absorbance at 450 nm [3] [absorbance]
M3 (antibody, human IgG1, lambda, V domains shown) VH: QLQLQESGPGLVKPSETLSLTCTVSGGSISSSSYYWGWIRQPPGKGLEWIGSIYYSGSTHYNPSLKSRVTISVDTSKNQFSLKLRSVTAADTAVYYCARGVVEVRGNHYYYYYMDVWGKGTTVTVSS VL: QSVLTQPPSVSGAPGQRVTISCTGSSSNIGAGYDVHWYQQLPGTAPKLLIYGNSYRPSGVPDRFSGSKSGTSASLAITGLQAEDEADYYCQSYDSSLSGSGVFGGGTKLTVLG | 3.14 | 0.1 |  | 
M7 (antibody, human IgG1, kappa, V domains shown) VH: EVQLVESGGGLVQPGGSLRLSCAASGFTVSSNYMSWVRQAPGKGLEWVSVIYSGGSTYYADSVKGRFTISRDNSKNTLYLQMNSLRAEDTAVYYCARGSTNTYYYDSSGHPWGQGTMVTVSS VL: DIVMTQSPLSLPATPGEPASISCRSSQSLLHSNGYTYLDWYLQKPGQSPQVLIYLASNRASGVPDRFSGSGSGTNFTLKISRVEAEDVGLFYCMQALQTPQTFGQGTKLEIKR | 0.95 | 0.1 |  | 
M20 (antibody, human IgG1, kappa, V domains shown) VH: EVQLVESGGGLVQPGGSLRLSCAASGFTFSSYWMHWVRQAPGKGLVWVSHINSDGSSTSYADSVKGRFTISRDNAKNTLYLQMNSLRAEDTAVYYCARELADWGQGTLVTVSS VL: DVVMTQSPLSLPVTLGQPASISCRSSQSLVYSDGNTYLNWFQQRPGQSPRRLIYQVSNRDSGVPDRFSGSGSGTDFTLKIGRVEAEDVGVYFCMQGTHWPWTFGQGTKVEIKR | 4.45 | 0.1 | 0.1 | 0.1
M22 (antibody, human IgG1, kappa, V domains shown) VH: EVQLVESGGGLVQPGGSLRLSCAASGFTVSSNYMSWVRQAPGKGLEWVSVIYSGGTTYYADSVKGRFTISRHNSKNTLYLQMNSLRAEDTAVYYCARDHDPDYGGYYMDVWGKGTTVTVSS VL: DVVMTQSPLSLPVTLGQPASISCRSSQSLVYSDGNTYLNWFQQRPGQSPRRLIYQVSNRDSGVPDRFSGSGSGTDFTLKIGRVEAEDVGVYFCMQGTHWPWTFGQGTKVEIKR | 2.17 | 0.1 | 0.1 | 0.1
M21 (antibody, human IgG1, kappa, V domains shown) VH: EVQLVESGGGLVQPGGSLRLSCAASGFTVSSNYMSWVRQAPGKGLEWVSVIYSGGSTYYADSVKGRFTISRDNSKNTLYLQMNSLRAEDTAVYYCARDQEHYFDGSGYYVDYWGQGTLVTVSS VL: DVVMTQSPLSLPVTLGQPASISCRSSQSLVYSDGNTYLNWFQQRPGQSPRRLIYQVSNRDSGVPDRFSGSGSGTDFTLKIGRVEAEDVGVYFCMQGTHWPWTFGQGTKVEIKR | 2.67 | 0.1 | 0.1 | 0.1
